# Article PMC7840889, “Architecture of the Tuberous Sclerosis Protein Complex” (Journal of Molecular Biology, 2021)
# B1: TSC1(Δ400-600) (natural protein, human, UniProt Q92574-1 1-1164, looked up)
# chain: MAQQANVGELLAMLDSPMLGVRDDVTAVFKENLNSDRGPMLVNTLVDYYLETSSQPALHILTTLQEPHDKHLLDRINEYVGKAATRLSILSLLGHVIRLQPSWKHKLSQAPLLPSLLKCLKMDTDVVVLTTGVLVLITMLPMIPQSGKQHLLDFFDIFGRLSSWCLKKPGHVAEVYLVHLHASVYALFHRLYGMYPCNFVSFLRSHYSMKENLETFEEVVKPMMEHVRIHPELVTGSKDHELDPRRWKRLETHDVVIECAKISLDPTEASYEDGYSVSHQISARFPHRSADVTTSPYADTQNSYGCATSTPYSTSRLMLLNMPGQLPQTLSSPSTRLITEPPQATLWSPSMVCGMTTPPTSPGNVPPDLSHPYSKVFGTTAGGKGTPLGTPATSPPPAPPPPYDHLFEVALPKTAHHFVIRKTEELLKKAKGNTEEDGVPSTSPMEVLDRLIQQGADAHSKELNKLPLPSKSVDWTHFGGSPPSDEIRTLRDQLLLLHNQLLYERFKRQQHALRNRRLLRKVIKAAALEEHNAAMKDQLKLQEKDIQMWKVSLQKEQARYNQLQEQRDTMVTKLHSQIRQLQHDREEFYNQSQELQTKLEDCRNMIAELRIELKKANNKVCHTELLLSQVSQKLSNSESVQQQMEFLNRQLLVLGEVNELYLEQLQNKHSDTTKEVEMMKAAYRKELEKNRSHVLQQTQRLDTSQKRILELESHLAKKDHLLLEQKKYLEDVKLQARGQLQAAESRYEAQKRITQVFELEILDLYGRLEKDGLLKKLEEEKAEAAEAAEERLDCCNDGCSDSMVGHNEEASGHNGETKTPRPSSARGSSGSRGGGGSSSSSSELSTPEKPPHQRAGPFSSRWETTMGEASASIPTTVGSLPSSKSFLGMKARELFRNKSESQCDEDGMTSSLSESLKTELGKDLGVEAKIPLNLDGPHPSPPTPDSVGQLHIMDYNETHHEHS
# notes: human TSC1 (1164 amino acids, Q92574-1) with an internal deletion of residues 400-600; also called TSC1 internal deletion construct; TSC1 of TSCC1Δ
# B2: FLAG-tagged full-length human TSC1 (natural protein, UniProt Q92574-1 1-1164, looked up)
# chain: MAQQANVGELLAMLDSPMLGVRDDVTAVFKENLNSDRGPMLVNTLVDYYLETSSQPALHILTTLQEPHDKHLLDRINEYVGKAATRLSILSLLGHVIRLQPSWKHKLSQAPLLPSLLKCLKMDTDVVVLTTGVLVLITMLPMIPQSGKQHLLDFFDIFGRLSSWCLKKPGHVAEVYLVHLHASVYALFHRLYGMYPCNFVSFLRSHYSMKENLETFEEVVKPMMEHVRIHPELVTGSKDHELDPRRWKRLETHDVVIECAKISLDPTEASYEDGYSVSHQISARFPHRSADVTTSPYADTQNSYGCATSTPYSTSRLMLLNMPGQLPQTLSSPSTRLITEPPQATLWSPSMVCGMTTPPTSPGNVPPDLSHPYSKVFGTTAGGKGTPLGTPATSPPPAPLCHSDDYVHISLPQATVTPPRKEERMDSARPCLHRQHHLLNDRGSEEPPGSKGSVTLSDLPGFLGDLASEEDSIEKDKEEAAISRELSEITTAEAEPVVPRGGFDSPFYRDSLPGSQRKTHSAASSSQGASVNPEPLHSSLDKLGPDTPKQAFTPIDLPCGSADESPAGDRECQTSLETSIFTPSPCKIPPPTRVGFGSGQPPPYDHLFEVALPKTAHHFVIRKTEELLKKAKGNTEEDGVPSTSPMEVLDRLIQQGADAHSKELNKLPLPSKSVDWTHFGGSPPSDEIRTLRDQLLLLHNQLLYERFKRQQHALRNRRLLRKVIKAAALEEHNAAMKDQLKLQEKDIQMWKVSLQKEQARYNQLQEQRDTMVTKLHSQIRQLQHDREEFYNQSQELQTKLEDCRNMIAELRIELKKANNKVCHTELLLSQVSQKLSNSESVQQQMEFLNRQLLVLGEVNELYLEQLQNKHSDTTKEVEMMKAAYRKELEKNRSHVLQQTQRLDTSQKRILELESHLAKKDHLLLEQKKYLEDVKLQARGQLQAAESRYEAQKRITQVFELEILDLYGRLEKDGLLKKLEEEKAEAAEAAEERLDCCNDGCSDSMVGHNEEASGHNGETKTPRPSSARGSSGSRGGGGSSSSSSELSTPEKPPHQRAGPFSSRWETTMGEASASIPTTVGSLPSSKSFLGMKARELFRNKSESQCDEDGMTSSLSESLKTELGKDLGVEAKIPLNLDGPHPSPPTPDSVGQLHIMDYNETHHEHS
# notes: human TSC1, full length, 1164 amino acids, UniProtKB/Swiss-Prot Q92574-1; Two copies stand in the TSCC; also called hamartin
# B3: FLAG-tagged full-length human TSC2 (natural protein)
# chain: not shown
# notes: human TSC2, full length, 1807 amino acids, UniProtKB/Swiss-Prot P49815-1; Could not be purified in the absence of TSC1; two copies stand in the TSCC; also called tuberin
# B4: FLAG-tagged human TBC1D7 (natural protein, UniProt Q9P0N9 1-293, looked up)
# chain: MTEDSQRNFRSVYYEKVGFRGVEEKKSLEILLKDDRLDTEKLCTFSQRFPLPSMYRALVWKVLLGILPPHHESHAKVMMYRKEQYLDVLHALKVVRFVSDATPQAEVYLRMYQLESGKLPRSPSFPLEPDDEVFLAIAKAMEEMVEDSVDCYWITRRFVNQLNTKYRDSLPQLPKAFEQYLNLEDGRLLTHLRMCSAAPKLPYDLWFKRCFAGCLPESSLQRVWDKVVSGSCKILVFVAVEILLTFKIKVMALNSAEKITKFLENIPQDSSDAIVSKAIDLWHKHCGTPVHSS
# notes: human TBC1D7, 293 amino acids, GenBank AAH07054; part of the FL TSC1-TSC2-TBC1D7 (TSCCFL) plasmids; One copy stands in the TSCC
# Tests used:
# [1] = target: the molecule itself; assay: SEC-MALS; TSCC1Δ (TSC1(Δ400-600)-TSC2-TBC1D7) on Superose 6 10/300; 25 mM K-HEPES pH 7.6, 250 mM KCl, 0.5 mM EDTA, 1 mM TCEP; room temperature
# [2] = target: B3; assay: as above; conditions: both partners purified
# [3] = target: B3; assay: cryo-EM structure; single-particle cryo-EM of purified TSCCFL at 0.1-0.2 mg/mL on graphene oxide; 25 mM K-HEPES pH 7.6, 175 mM KCl or 150 mM LiCl, 1 mM TCEP; body 4.6 Å, pincer 8.1 Å, tail 8.2 Å; conditions: both partners purified
# TSC1(Δ400-600) = target: B1; assay: SEC-MALS; TSCC1Δ (TSC1(Δ400-600)-TSC2-TBC1D7) on Superose 6 10/300; 25 mM K-HEPES pH 7.6, 250 mM KCl, 0.5 mM EDTA, 1 mM TCEP; room temperature; conditions: both partners purified
# [4] = target: B2; assay: cryo-EM structure; single-particle cryo-EM of purified TSCCFL at 0.1-0.2 mg/mL on graphene oxide; 25 mM K-HEPES pH 7.6, 175 mM KCl or 150 mM LiCl, 1 mM TCEP; body 4.6 Å, pincer 8.1 Å, tail 8.2 Å; conditions: both partners purified
binder,measurement,setting,value
B1,stoichiometry N,[1],~2
same,binding result,[2],binds
B2,binding result,[3],binds
B3,stoichiometry N,[1],~2
B4,binding result,TSC1(Δ400-600),binds
same,binding result,[4],binds
